Data on 10 molecules can be found in patent publication US20140295512A1, “Ketol-Acid Reductoisomerases With Improved Performance Properties” (CALIFORNIA INSTITUTE OF TECHNOLOGY, priority 2011, published 2014).

Data set [1] can be described thus: KARI assay of purified S. exigua KARI and variants with NADH (Examples 6-9). The class given is biochemical. The note with it: for U/mg NADH (specific activity): cofactor NADH; for Ratio NADH/NADPH (U/mg): specific activity ratio; for Km: read-out: Km for cofactor NADH. As to the method: (§1) S. exigua KARI activity or activities of its variants were assayed kinetically by monitoring the decrease in NADPH or NADH concentration by measuring the change in absorbance at 340 nm. An assay buffer was prepared containing 100 mM potassium phosphate pH 7.0, 1 mM DTT, 2.5 mM (S)-2-acetolactate, and 10 mM MgCl2 (final concentrations in the 1-mL assay, accounting for dilution with enzyme and cofactor). Fifty μL purified enzyme and 930 μL of the assay buffer were placed into a 1-mL cuvette. The reaction was initiated by addition of 20 μL NADPH or NADH (200 μM final concentration) for a general activity assay. Michaelis-Menten constants of the cofactors were determined with varying concentrations of NADPH (200-12 μM final) or NADH (200-6 μM final).

The nature of data set [2]: KARI assay of purified S. exigua KARI and variants with NADPH (Examples 6-9). The class given is biochemical. The note with it: for U/mg NADPH (specific activity): cofactor NADPH. As to the method:
as §1

B1: Se1_KARI^EE1-his6: S. exigua KARI variant L57R (protein, UniProt D0WGK0 1-342, looked up, variant L57R)
Ketol-acid reductoisomerase …: MSVKTKEKEMAVTILYEQDVDPKVIQGLKVGIIGYGSQGHAHALNLMDSGVDVRVGRREGSSSWKTAEEAGLKVTDMDTAAEEADVIMVLVPDEIQPKVYQEHIAAHLKAGNTLAFAHGFNIHYGYIVPPEDVNVIMCAPKGPGHIVRRQFTEGSGVPDLACVQQDATGNAWDIVLSYCWGVGGARSGIIKATFAEETEEDLFGEQAVLCGGLVELVKAGFETLTEAGYPPELAYFECYHEMKMIVDLMYESGIHFMNYSISNTAEYGEYYAGPKVINEQSREAMKEILKRIQDGSFAQEFVDDCNNGHKRLLEQREAINTHPIETTGAQIRSMFSWIKKED
modifications: His6 tag
notes: S. exigua KARI variant L57R
With B1, in data set [1], the “U/mg NADH (specific activity)” value amounted to 0.06 U/mg and the “Ratio NADH/NADPH (U/mg)” value was 1.58. For the same molecule, the “U/mg NADPH (specific activity)” value in data set [2] came to 0.04 U/mg.

B2: Se1_KARI^EA8-his6: S. exigua KARI variant L57S (protein, UniProt D0WGK0 1-342, looked up, variant L57S)
Ketol-acid reductoisomerase …: MSVKTKEKEMAVTILYEQDVDPKVIQGLKVGIIGYGSQGHAHALNLMDSGVDVRVGSREGSSSWKTAEEAGLKVTDMDTAAEEADVIMVLVPDEIQPKVYQEHIAAHLKAGNTLAFAHGFNIHYGYIVPPEDVNVIMCAPKGPGHIVRRQFTEGSGVPDLACVQQDATGNAWDIVLSYCWGVGGARSGIIKATFAEETEEDLFGEQAVLCGGLVELVKAGFETLTEAGYPPELAYFECYHEMKMIVDLMYESGIHFMNYSISNTAEYGEYYAGPKVINEQSREAMKEILKRIQDGSFAQEFVDDCNNGHKRLLEQREAINTHPIETTGAQIRSMFSWIKKED
modifications: His6 tag
notes: S. exigua KARI variant L57S
Regarding B2, in data set [1], the “U/mg NADH (specific activity)” value was found to be 0.19 U/mg and the “Ratio NADH/NADPH (U/mg)” value worked out at 0.76. Also, the “U/mg NADPH (specific activity)” value in data set [2] is on record as 0.25 U/mg.

B3: Se1_KARI^LE1-his6: S. exigua KARI variant I95V (protein, UniProt D0WGK0 1-342, looked up, variant I95V)
Ketol-acid reductoisomerase …: MSVKTKEKEMAVTILYEQDVDPKVIQGLKVGIIGYGSQGHAHALNLMDSGVDVRVGLREGSSSWKTAEEAGLKVTDMDTAAEEADVIMVLVPDEVQPKVYQEHIAAHLKAGNTLAFAHGFNIHYGYIVPPEDVNVIMCAPKGPGHIVRRQFTEGSGVPDLACVQQDATGNAWDIVLSYCWGVGGARSGIIKATFAEETEEDLFGEQAVLCGGLVELVKAGFETLTEAGYPPELAYFECYHEMKMIVDLMYESGIHFMNYSISNTAEYGEYYAGPKVINEQSREAMKEILKRIQDGSFAQEFVDDCNNGHKRLLEQREAINTHPIETTGAQIRSMFSWIKKED
modifications: His6 tag
notes: S. exigua KARI variant I95V
By Km is commonly meant the substrate concentration at which the rate is half of its maximum. As for B3, in data set [1], the “kcat NADH” value was 0.74 s⁻¹, the “U/mg NADH (specific activity)” value came to 0.3 U/mg, the Km came to 19 µM and the “Ratio NADH/NADPH (U/mg)” value is listed as 0.8. In addition, the “U/mg NADH (specific activity)” value in data set [1] (listed as Se1_KARI^LE1) came to 0.30 U/mg. For the same molecule, in data set [2], the “kcat NADPH” value is 1.00 s⁻¹ and the “U/mg NADPH (specific activity)” value is 0.4 U/mg. In addition, the “U/mg NADPH (specific activity)” value in data set [2] (listed as Se1_KARI^LE1) came out at 0.40 U/mg.

B4: Se1_KARI^MH9-his6: S. exigua KARI variant V99L (protein, UniProt D0WGK0 1-342, looked up, variant V99L)
Ketol-acid reductoisomerase …: MSVKTKEKEMAVTILYEQDVDPKVIQGLKVGIIGYGSQGHAHALNLMDSGVDVRVGLREGSSSWKTAEEAGLKVTDMDTAAEEADVIMVLVPDEIQPKLYQEHIAAHLKAGNTLAFAHGFNIHYGYIVPPEDVNVIMCAPKGPGHIVRRQFTEGSGVPDLACVQQDATGNAWDIVLSYCWGVGGARSGIIKATFAEETEEDLFGEQAVLCGGLVELVKAGFETLTEAGYPPELAYFECYHEMKMIVDLMYESGIHFMNYSISNTAEYGEYYAGPKVINEQSREAMKEILKRIQDGSFAQEFVDDCNNGHKRLLEQREAINTHPIETTGAQIRSMFSWIKKED
modifications: His6 tag
notes: S. exigua KARI variant V99L
Take B4: in data set [1], the “U/mg NADH (specific activity)” value was found to be 0.21 U/mg and the “Ratio NADH/NADPH (U/mg)” value is reported as 0.64. In addition, in data set [2], the “U/mg NADPH (specific activity)” value is 0.34 U/mg.

B5: Se1_KARI^LE9-his6: S. exigua KARI variant I95T (protein, UniProt D0WGK0 1-342, looked up, variant I95T)
Ketol-acid reductoisomerase …: MSVKTKEKEMAVTILYEQDVDPKVIQGLKVGIIGYGSQGHAHALNLMDSGVDVRVGLREGSSSWKTAEEAGLKVTDMDTAAEEADVIMVLVPDETQPKVYQEHIAAHLKAGNTLAFAHGFNIHYGYIVPPEDVNVIMCAPKGPGHIVRRQFTEGSGVPDLACVQQDATGNAWDIVLSYCWGVGGARSGIIKATFAEETEEDLFGEQAVLCGGLVELVKAGFETLTEAGYPPELAYFECYHEMKMIVDLMYESGIHFMNYSISNTAEYGEYYAGPKVINEQSREAMKEILKRIQDGSFAQEFVDDCNNGHKRLLEQREAINTHPIETTGAQIRSMFSWIKKED
modifications: His6 tag
notes: S. exigua KARI variant I95T
Take B5: in data set [1], the “U/mg NADH (specific activity)” value is 0.32 U/mg and the “Ratio NADH/NADPH (U/mg)” value was 0.58. Moreover, the “U/mg NADPH (specific activity)” value in data set [2] is 0.56 U/mg.

B6: Se1_KARI^1A8: S. exigua KARI variant G60V, I95V, V99L (protein, UniProt D0WGK0 1-342, looked up, variant G60V I95V V99L)
Ketol-acid reductoisomerase …: MSVKTKEKEMAVTILYEQDVDPKVIQGLKVGIIGYGSQGHAHALNLMDSGVDVRVGLREVSSSWKTAEEAGLKVTDMDTAAEEADVIMVLVPDEVQPKLYQEHIAAHLKAGNTLAFAHGFNIHYGYIVPPEDVNVIMCAPKGPGHIVRRQFTEGSGVPDLACVQQDATGNAWDIVLSYCWGVGGARSGIIKATFAEETEEDLFGEQAVLCGGLVELVKAGFETLTEAGYPPELAYFECYHEMKMIVDLMYESGIHFMNYSISNTAEYGEYYAGPKVINEQSREAMKEILKRIQDGSFAQEFVDDCNNGHKRLLEQREAINTHPIETTGAQIRSMFSWIKKED
B6: in data set [1], the “kcat NADH” value was found to be 0.65 s⁻¹, the “U/mg NADH (specific activity)” value was determined as 0.26 U/mg and the “Ratio NADH/NADPH (U/mg)” value is on record as 0.8. Moreover, in data set [2], the “kcat NADPH” value was found to be 0.79 s⁻¹ and the “U/mg NADPH (specific activity)” value is given as 0.32 U/mg.

B7: Se1_KARI^GE11-his6: S. exigua KARI variant G60V (protein, UniProt D0WGK0 1-342, looked up, variant G60V)
Ketol-acid reductoisomerase …: MSVKTKEKEMAVTILYEQDVDPKVIQGLKVGIIGYGSQGHAHALNLMDSGVDVRVGLREVSSSWKTAEEAGLKVTDMDTAAEEADVIMVLVPDEIQPKVYQEHIAAHLKAGNTLAFAHGFNIHYGYIVPPEDVNVIMCAPKGPGHIVRRQFTEGSGVPDLACVQQDATGNAWDIVLSYCWGVGGARSGIIKATFAEETEEDLFGEQAVLCGGLVELVKAGFETLTEAGYPPELAYFECYHEMKMIVDLMYESGIHFMNYSISNTAEYGEYYAGPKVINEQSREAMKEILKRIQDGSFAQEFVDDCNNGHKRLLEQREAINTHPIETTGAQIRSMFSWIKKED
modifications: His6 tag
notes: S. exigua KARI variant G60V
Consider B7, for which, in data set [1], the “kcat NADH” value was 1 s⁻¹, the “U/mg NADH (specific activity)” value turned out to be 0.4 U/mg and the “Ratio NADH/NADPH (U/mg)” value turned out to be 0.48. For the same molecule, in data set [1] (listed as Se1_KARI^GE11), the “U/mg NADH (specific activity)” value amounted to 0.40 U/mg and the “Ratio NADH/NADPH (U/mg)” value is recorded as 0.50. In addition, in data set [2], the “kcat NADPH” value worked out at 2 s⁻¹ and the “U/mg NADPH (specific activity)” value is recorded as 0.8 U/mg.

B8: Se1_KARI^CD10-his6: S. exigua KARI variant Y35H (protein, UniProt D0WGK0 1-342, looked up, variant Y35H)
Ketol-acid reductoisomerase …: MSVKTKEKEMAVTILYEQDVDPKVIQGLKVGIIGHGSQGHAHALNLMDSGVDVRVGLREGSSSWKTAEEAGLKVTDMDTAAEEADVIMVLVPDEIQPKVYQEHIAAHLKAGNTLAFAHGFNIHYGYIVPPEDVNVIMCAPKGPGHIVRRQFTEGSGVPDLACVQQDATGNAWDIVLSYCWGVGGARSGIIKATFAEETEEDLFGEQAVLCGGLVELVKAGFETLTEAGYPPELAYFECYHEMKMIVDLMYESGIHFMNYSISNTAEYGEYYAGPKVINEQSREAMKEILKRIQDGSFAQEFVDDCNNGHKRLLEQREAINTHPIETTGAQIRSMFSWIKKED
modifications: His6 tag
notes: S. exigua KARI variant Y35H
As for B8, in data set [1], the “U/mg NADH (specific activity)” value is reported as 0.13 U/mg and the “Ratio NADH/NADPH (U/mg)” value stood at 0.68. Moreover, the “U/mg NADPH (specific activity)” value in data set [2] came to 0.19 U/mg.

B9: Se1_KARI^HF2-his6: S. exigua KARI variant S61C (protein, UniProt D0WGK0 1-342, looked up, variant S61C)
Ketol-acid reductoisomerase …: MSVKTKEKEMAVTILYEQDVDPKVIQGLKVGIIGYGSQGHAHALNLMDSGVDVRVGLREGCSSWKTAEEAGLKVTDMDTAAEEADVIMVLVPDEIQPKVYQEHIAAHLKAGNTLAFAHGFNIHYGYIVPPEDVNVIMCAPKGPGHIVRRQFTEGSGVPDLACVQQDATGNAWDIVLSYCWGVGGARSGIIKATFAEETEEDLFGEQAVLCGGLVELVKAGFETLTEAGYPPELAYFECYHEMKMIVDLMYESGIHFMNYSISNTAEYGEYYAGPKVINEQSREAMKEILKRIQDGSFAQEFVDDCNNGHKRLLEQREAINTHPIETTGAQIRSMFSWIKKED
modifications: His6 tag
notes: S. exigua KARI variant S61C
Turning to B9, in data set [1], the “kcat NADH” value is 0.45 s⁻¹, the “U/mg NADH (specific activity)” value is reported as 0.18 U/mg, the Km is 43.8 µM and the “Ratio NADH/NADPH (U/mg)” value was determined as 0.78. Besides, in data set [2], the “kcat NADPH” value is 0.57 s⁻¹ and the “U/mg NADPH (specific activity)” value is 0.23 U/mg.

B10: Se1_KARI^JB7-his6: S. exigua KARI variant S63Q (protein, UniProt D0WGK0 1-342, looked up, variant S63Q)
Ketol-acid reductoisomerase …: MSVKTKEKEMAVTILYEQDVDPKVIQGLKVGIIGYGSQGHAHALNLMDSGVDVRVGLREGSSQWKTAEEAGLKVTDMDTAAEEADVIMVLVPDEIQPKVYQEHIAAHLKAGNTLAFAHGFNIHYGYIVPPEDVNVIMCAPKGPGHIVRRQFTEGSGVPDLACVQQDATGNAWDIVLSYCWGVGGARSGIIKATFAEETEEDLFGEQAVLCGGLVELVKAGFETLTEAGYPPELAYFECYHEMKMIVDLMYESGIHFMNYSISNTAEYGEYYAGPKVINEQSREAMKEILKRIQDGSFAQEFVDDCNNGHKRLLEQREAINTHPIETTGAQIRSMFSWIKKED
modifications: His6 tag
notes: S. exigua KARI variant S63Q
In the case of B10, in data set [1], the “kcat NADH” value came out at 0.69 s⁻¹, the “U/mg NADH (specific activity)” value was found to be 0.28 U/mg and the “Ratio NADH/NADPH (U/mg)” value turned out to be 0.47. Moreover, in data set [2], the “kcat NADPH” value came out at 1.5 s⁻¹ and the “U/mg NADPH (specific activity)” value amounted to 0.6 U/mg.
